Test results reported in paper PMC12985673.
Values joined by “and” are separate entries in the source; they are usually repeats but may differ in a detail not shown here. Equal entries are not always repeated. Where two headings read alike, the source gives them in different places. One block for each substance: values may come before it.

Columns and labels:
Neurexin β1 ECD [1] = molecular target: Neurexin β1 ECD (UniProt P58400); conditions: cited from earlier work
Neurexin β1 [2] = molecular target: Neurexin β1 (UniProt P58400); conditions: cited from earlier work
Chain of Neurexin β1 (P58400 51-396): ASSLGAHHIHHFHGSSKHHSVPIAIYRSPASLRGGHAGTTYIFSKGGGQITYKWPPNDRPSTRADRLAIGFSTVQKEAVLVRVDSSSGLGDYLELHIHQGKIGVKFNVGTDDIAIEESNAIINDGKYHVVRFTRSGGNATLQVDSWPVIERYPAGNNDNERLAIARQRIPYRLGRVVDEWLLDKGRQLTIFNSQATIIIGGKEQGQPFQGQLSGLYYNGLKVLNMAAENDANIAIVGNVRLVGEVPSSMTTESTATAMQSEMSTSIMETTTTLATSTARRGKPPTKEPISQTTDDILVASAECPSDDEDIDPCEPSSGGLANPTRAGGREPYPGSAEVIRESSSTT

[3] = molecular target: NRXβ1 ECD (amino acids 81 to 311), His-tagged, labelled with Alexa Fluor 488 (mouse) (UniProt P0DI97); assay: fluorescence polarisation; 8 nM NRXβ1 ECD–AF488, NL2 or NL2mut titrated 15 nM to 8 μM; 20 mM Hepes pH 7.5, 150 mM NaCl, 1 mM MgCl2, 0.5 mM CaCl2; triplicate; Hill fit with shared slope; apparent
Neurexin β1 ECD [4] = molecular target: Neurexin β1 ECD (UniProt P58400); conditions: cited from earlier work; remark: listed apart in the source
[5] = molecular target: full-length neuroligin 2 (NL2), mouse, without the splice insert at site A (mouse) (UniProt Q69ZK9); assay: proteoliposome colocalisation (TIRF microscopy); as a5 at 2x protein: NL2 1:5 and NRXβ1 1:10 protein:lipid (w/w); all detections
Chain of full-length neuroligin 2 (NL2), mouse, without the splice insert at site A (mouse) (Q69ZK9 other isoform, or with tags, fused parts or gaps): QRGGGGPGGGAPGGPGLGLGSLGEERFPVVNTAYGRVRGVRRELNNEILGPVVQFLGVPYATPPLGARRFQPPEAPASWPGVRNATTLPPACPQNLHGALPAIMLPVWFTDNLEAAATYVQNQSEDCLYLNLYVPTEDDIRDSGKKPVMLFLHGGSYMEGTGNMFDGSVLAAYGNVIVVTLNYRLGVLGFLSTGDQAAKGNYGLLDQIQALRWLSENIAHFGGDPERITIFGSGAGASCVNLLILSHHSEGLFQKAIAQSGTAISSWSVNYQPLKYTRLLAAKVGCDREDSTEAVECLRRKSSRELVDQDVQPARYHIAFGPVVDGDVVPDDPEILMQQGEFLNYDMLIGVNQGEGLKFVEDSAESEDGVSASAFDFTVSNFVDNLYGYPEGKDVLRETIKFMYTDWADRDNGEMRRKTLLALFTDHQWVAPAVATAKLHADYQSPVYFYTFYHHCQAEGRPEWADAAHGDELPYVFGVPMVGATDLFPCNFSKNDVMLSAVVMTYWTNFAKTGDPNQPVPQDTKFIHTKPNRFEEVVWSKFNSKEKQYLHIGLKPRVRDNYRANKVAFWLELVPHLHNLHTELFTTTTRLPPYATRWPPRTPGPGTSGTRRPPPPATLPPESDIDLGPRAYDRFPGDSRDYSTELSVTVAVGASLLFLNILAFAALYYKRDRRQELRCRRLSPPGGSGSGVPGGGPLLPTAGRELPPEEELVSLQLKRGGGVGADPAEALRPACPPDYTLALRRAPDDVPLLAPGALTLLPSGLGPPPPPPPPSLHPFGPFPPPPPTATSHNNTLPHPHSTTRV

[6] = molecular target: full-length neuroligin 2 (NL2), mouse, without the splice insert at site A (mouse) (UniProt Q69ZK9); assay: cryo-EM structure; NL2 and NRXβ1 purified separately, mixed at one-to-one molar ratio, ~20 μM (monomer) each, on ice 10 min; only the ECDs resolved; Ca2+ at the interface
[7] = molecular target: full-length neuroligin 2 (NL2), mouse, without the splice insert at site A (mouse) (UniProt Q69ZK9); assay: proteoliposome colocalisation (TIRF microscopy); as a5 at 2x protein: NL2 1:5 and NRXβ1 1:10 protein:lipid (w/w); all detections; remark: listed apart in the source
Neurexin β1 [8] = molecular target: Neurexin β1 (UniProt P58400); conditions: cited from earlier work; remark: listed apart in the source

Chain of Neurexin β1 ECD (P58400 51-396): as the sequence (P58400 51-396) above
Chain of Neuroligin 2 (Q8NFZ4 15-677): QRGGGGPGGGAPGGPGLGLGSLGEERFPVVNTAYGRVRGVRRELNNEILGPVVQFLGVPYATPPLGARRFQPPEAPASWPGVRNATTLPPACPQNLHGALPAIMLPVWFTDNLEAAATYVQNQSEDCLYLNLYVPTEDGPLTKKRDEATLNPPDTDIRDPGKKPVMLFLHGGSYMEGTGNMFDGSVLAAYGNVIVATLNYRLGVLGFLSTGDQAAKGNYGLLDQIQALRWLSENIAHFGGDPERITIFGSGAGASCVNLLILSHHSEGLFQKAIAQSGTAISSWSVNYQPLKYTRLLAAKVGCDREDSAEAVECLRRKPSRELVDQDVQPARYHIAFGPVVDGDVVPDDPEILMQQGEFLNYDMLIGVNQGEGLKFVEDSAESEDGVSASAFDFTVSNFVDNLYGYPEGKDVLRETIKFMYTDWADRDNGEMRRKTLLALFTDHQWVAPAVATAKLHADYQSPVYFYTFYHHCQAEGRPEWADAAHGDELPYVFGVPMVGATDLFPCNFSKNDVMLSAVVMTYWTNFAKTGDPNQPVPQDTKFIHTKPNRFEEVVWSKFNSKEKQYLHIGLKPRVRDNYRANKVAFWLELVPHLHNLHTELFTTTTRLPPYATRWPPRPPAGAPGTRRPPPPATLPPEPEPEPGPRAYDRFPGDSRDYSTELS
Chain of full-length neuroligin 2 (NL2), mouse, without the splice insert at site A (Q69ZK9 other isoform, or with tags, fused parts or gaps): as the sequence (Q69ZK9 other isoform, or with tags, fused parts or gaps) above
Chain of Neuroligin 1 ECD (Q8N2Q7 46-717): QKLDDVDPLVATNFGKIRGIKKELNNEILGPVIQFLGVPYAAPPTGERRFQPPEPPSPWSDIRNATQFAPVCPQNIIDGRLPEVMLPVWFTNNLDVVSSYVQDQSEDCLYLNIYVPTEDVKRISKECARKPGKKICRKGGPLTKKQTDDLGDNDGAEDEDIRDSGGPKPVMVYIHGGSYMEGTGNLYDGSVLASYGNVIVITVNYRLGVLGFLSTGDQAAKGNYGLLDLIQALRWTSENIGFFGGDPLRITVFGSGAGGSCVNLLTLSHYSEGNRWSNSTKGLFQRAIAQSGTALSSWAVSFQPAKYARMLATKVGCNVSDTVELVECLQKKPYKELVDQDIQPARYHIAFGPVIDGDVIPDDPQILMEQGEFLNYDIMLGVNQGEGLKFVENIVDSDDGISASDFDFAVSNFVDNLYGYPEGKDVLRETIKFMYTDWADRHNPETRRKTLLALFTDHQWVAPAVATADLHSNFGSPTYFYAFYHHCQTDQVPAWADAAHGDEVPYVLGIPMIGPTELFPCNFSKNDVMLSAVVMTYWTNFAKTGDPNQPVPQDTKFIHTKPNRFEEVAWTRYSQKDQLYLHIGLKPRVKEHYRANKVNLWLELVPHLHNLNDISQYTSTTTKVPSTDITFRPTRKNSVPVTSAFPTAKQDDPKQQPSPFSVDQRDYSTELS
Chain of Neuroligin 3 (Q9NZ94 38-709): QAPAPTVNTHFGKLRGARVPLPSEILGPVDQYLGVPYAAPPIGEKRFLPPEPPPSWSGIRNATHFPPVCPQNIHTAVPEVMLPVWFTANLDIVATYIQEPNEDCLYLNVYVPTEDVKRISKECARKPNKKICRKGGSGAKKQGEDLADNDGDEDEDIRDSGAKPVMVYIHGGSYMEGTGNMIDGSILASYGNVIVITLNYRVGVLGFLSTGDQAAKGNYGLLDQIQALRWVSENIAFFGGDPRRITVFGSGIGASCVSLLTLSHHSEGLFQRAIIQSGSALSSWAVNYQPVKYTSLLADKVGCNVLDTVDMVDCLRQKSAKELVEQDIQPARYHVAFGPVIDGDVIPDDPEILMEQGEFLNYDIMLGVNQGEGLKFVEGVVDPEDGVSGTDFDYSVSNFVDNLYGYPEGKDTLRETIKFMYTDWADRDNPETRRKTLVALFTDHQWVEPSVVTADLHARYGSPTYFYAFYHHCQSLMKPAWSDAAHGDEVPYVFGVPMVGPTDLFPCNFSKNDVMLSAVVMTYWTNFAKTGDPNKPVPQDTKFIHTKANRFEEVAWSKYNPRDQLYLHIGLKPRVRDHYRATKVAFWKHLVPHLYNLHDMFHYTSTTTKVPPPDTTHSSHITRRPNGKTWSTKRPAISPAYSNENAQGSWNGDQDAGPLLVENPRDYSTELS

Substance: Neuroligin 4 ECD (from UniProt Q8N0W4)
Kd (Neurexin β1 ECD [1]): 100 nM

Substance: Neuroligin 3 (from UniProt Q9NZ94)
Kd (Neurexin β1 [2]): 1000 nM

Kd [3]: 6000 nM
Substance: full-length neuroligin 2 (NL2), mouse, without the splice insert at site A (from UniProt Q69ZK9 15-836) (receptor)

Substance: Neuroligin 1 ECD (from UniProt Q8N2Q7)
Kd (Neurexin β1 ECD [4]): 10 nM

fraction of vesicles colocalised [5]: 0.6 | stoichiometry N (NRXβ1 per NL2 dimer) [6]: 2 and 1 | fraction of vesicles colocalised [7]: > 0.5
Substance: full-length neurexin β1 (NRXβ1), mouse, without the insert at splice site 4 (from UniProt P0DI97 47-468) (receptor)

Substance: Neuroligin 2 (from UniProt Q8NFZ4)
Kd (Neurexin β1 [8]): 10000 nM

fold increase of affinity against wild-type NL2 [3]: 30 fold
Substance: NL2 H279Y G282K mutant (from UniProt Q69ZK9 170-836) (receptor)
